Experimental data as given in patent US20240101686A1 (SIMCERE ZAIMING PHARMACEUTICAL, published 2024).
Where two headings read alike, the source gives them in different places. Values belong to the binder of their own block, whether it stands above or below them.

Key:
[1] = molecular target: T1, human EGFR-His-tagged fusion protein (human, UniProt P00533 25-645)
T1 construct: extracellular domain; bought; also called human EGFR protein; human EGFR-His protein

[2] = molecular target: T2, pepvIII polypeptide (human)
T2 construct: synthetic peptide (GL Biochem); also called Leu25-His37 polypeptide
T2 peptide: LEEKKGNYVVTDH

[3] = molecular target: T1, human EGFR-His-tagged fusion protein; remark: listed apart in the source
[4] = molecular target: T1, human EGFR-His-tagged fusion protein; remark: listed apart in the source
[5] = molecular target: T1, human EGFR-His-tagged fusion protein; remark: listed apart in the source
[6] = molecular target: T1, human EGFR-His-tagged fusion protein; remark: listed apart in the source
[7] = molecular target: T1, human EGFR-His-tagged fusion protein; remark: listed apart in the source
[8] = molecular target: T1, human EGFR-His-tagged fusion protein; remark: listed apart in the source
[9] = molecular target: T1, human EGFR-His-tagged fusion protein; remark: listed apart in the source
[10] = molecular target: T3, human EGFRvIII-His tag protein (human, UniProt P00533 298-645)
T3 construct: Made in HEK293E, purified on nickel column; also called human EGFRvIII protein; not shown: His tag

[11] = molecular target: T4, human EGFR protein (human, UniProt P00533 25-645)
T4 construct: also called human EGFR-His; human EGFR-ECD protein; not shown: His tag

[12] = molecular target: T5, monkey EGFR protein (cynomolgus monkey, UniProt P55245 25-645 (rhesus entry))
T5 construct: Bought protein (SB 90285-C08H); also called cynomolgus monkey EGFR

[13] = molecular target: T6, murine EGFR protein (murine, UniProt Q01279 25-647)
T6 construct: Bought protein

[14] = molecular target: T7, monkey EGFR protein (commercial, SB, catalog number 90285-C08H) (monkey); test: ELISA, coated monkey EGFR protein, antibody 0.1 nM
T7 construct: Bought protein used to coat ELISA plates

[15] = molecular target: T8, cynomolgus monkey EGFR on HEK293T-monkey EGFR cells (cynomolgus monkey, UniProt P55245 25-1210 (rhesus entry)); test: FACS, HEK293T-monkey EGFR cells
[16] = molecular target: T7, monkey EGFR protein (commercial, SB, …); test: ELISA, coated monkey EGFR protein, antibody 100 nM
[17] = molecular target: T8, cynomolgus monkey EGFR on …; test: FACS, HEK293T-monkey EGFR cells (specificity assay)
[18] = molecular target: T7, monkey EGFR protein (commercial, SB, …); test: ELISA, coated monkey EGFR protein, antibody 0.001 nM
[19] = molecular target: T7, monkey EGFR protein (commercial, SB, …); test: ELISA, coated monkey EGFR protein, antibody 0 nM (blank)
[20] = molecular target: T7, monkey EGFR protein (commercial, SB, …); test: ELISA, coated monkey EGFR protein, antibody 0.01 nM
[21] = molecular target: T7, monkey EGFR protein (commercial, SB, …); test: ELISA, coated monkey EGFR protein, antibody 0.0001 nM
[22] = molecular target: T7, monkey EGFR protein (commercial, SB, …); test: ELISA, coated monkey EGFR protein, antibody 10 nM
[23] = molecular target: T7, monkey EGFR protein (commercial, SB, …); test: ELISA, coated monkey EGFR protein, antibody 1 nM
[24] = molecular target: T9, murine EGFR protein (murine, UniProt Q01279 25-647); remark: listed apart in the source
T9 construct: Bought protein

[25] = molecular target: T10, human EGFRvIII-His tag protein (extracellular domain Leu25-Ser378) (human, UniProt P00533 298-645)
T10 construct: Made in HEK293E cells, purified on nickel column; also called human EGFRvIII protein; EGFRvIII protein; not shown: His tag

[26] = molecular target: T10, human EGFRvIII-His tag protein …; remark: listed apart in the source
[27] = molecular target: T9, murine EGFR protein; remark: listed apart in the source
[28] = molecular target: T9, murine EGFR protein; remark: listed apart in the source
[29] = molecular target: T9, murine EGFR protein; remark: listed apart in the source
[30] = molecular target: T9, murine EGFR protein; remark: listed apart in the source
[31] = molecular target: T9, murine EGFR protein; remark: listed apart in the source
[32] = molecular target: T10, human EGFRvIII-His tag protein …; remark: listed apart in the source
[33] = molecular target: T10, human EGFRvIII-His tag protein …; remark: listed apart in the source
[34] = molecular target: T9, murine EGFR protein; remark: listed apart in the source
[35] = molecular target: T10, human EGFRvIII-His tag protein …; remark: listed apart in the source
[36] = molecular target: T10, human EGFRvIII-His tag protein …; remark: listed apart in the source
[37] = molecular target: T10, human EGFRvIII-His tag protein …; remark: listed apart in the source
[38] = molecular target: T10, human EGFRvIII-His tag protein …; remark: listed apart in the source
[39] = molecular target: T9, murine EGFR protein; remark: listed apart in the source

OD450 [1]: 0.06
binding result [2]: binds
OD450 [3]: 0.05
OD450 [4]: 0.05
OD450 [5]: 0.05
OD450 [6]: 0.07
OD450 [7]: 0.09
OD450 [8]: 0.05
OD450 [9]: 0.05
B1: 30D8-hIgG1 (antibody, V domains shown)
VH: EVQLVESGGGLVKPGGSLRLSCEASGFTFSDAWMSWVRQAPGKGLEWVGRIKSKTDGGTTDYVVPLNGRFIISRDDSRNTLYLQLNNLKTEDTAVYYCTTVPGSYGYWGQGTLVTVSS
VL: DIVMTQSPLSLPVTPGEPASISCRSSQSLLHNKRNNYLDWFLQKPGQSPQLLIYLASNRASGVPDRFSGGGSGTDFTLKISRVEAEDVGVYYCMQAQQTPITFGQGTRLEIK

Kd [10]: 11.7 nM
koff [10]: 0.00229 s⁻¹
kon [10]: 197000 M⁻¹ s⁻¹
B2: 30D8-hIgG1 (antibody, V domains shown)
VH: B1 VH
VL: B1 VL
notes: anti-EGFRvIII control
binding result [11]: no binding (tested: 30 µg/mL (highest EGFR concentration))
binding result [12]: no binding (tested: 200 nM (highest antigen concentration))
binding result [13]: no binding (tested: 200 nM (highest antigen concentration))

OD450 [14]: 0.06
Max MFI [15]: 77
binding result [15]: no binding
OD450 [16]: 0.19
Max_MFI [17]: 314
OD450 [18]: 0.06
OD450 [19]: 0.06
OD450 [20]: 0.06
OD450 [21]: 0.05
OD450 [22]: 0.08
OD450 [23]: 0.06
B3: 30D8-hIgG1 (antibody, V domains shown)
VH: B1 VH
VL: B1 VL
notes: Anti-EGFRvIII control

OD450 [24]: 0.06
OD450 [25]: 0.15
OD450 [26]: 1.89
OD450 [27]: 0.06
OD450 [28]: 0.06
OD450 [29]: 0.06
OD450 [30]: 0.1
OD450 [31]: 0.06
OD450 [32]: 0.07
OD450 [33]: 2.61
OD450 [34]: 0.06
OD450 [35]: 0.07
OD450 [36]: 0.69
OD450 [37]: 2.25
OD450 [38]: 2.52
OD450 [39]: 0.06
B4: 30D8-hIgG1 (antibody, V domains shown)
VH: B1 VH
VL: B1 VL
notes: Variable regions cloned with human IgG1 heavy chain constant region and human light chain constant region
